According to PMC6586995:

Tests used:
Assay in all cases: SPR
[1] = target: T1, integrin α5β1 (soluble, SPR) (Homo sapiens, UniProt P08648;P05556 42-995;21-728)
[2] = target: integrin αvβ3 (Homo sapiens, UniProt P06756;P05106 31-992;27-718)
[3] = target: T1, integrin α5β1 (soluble, SPR); remark: listed apart in the source

T1 sequence (P08648 42-995, chain 1 of 2): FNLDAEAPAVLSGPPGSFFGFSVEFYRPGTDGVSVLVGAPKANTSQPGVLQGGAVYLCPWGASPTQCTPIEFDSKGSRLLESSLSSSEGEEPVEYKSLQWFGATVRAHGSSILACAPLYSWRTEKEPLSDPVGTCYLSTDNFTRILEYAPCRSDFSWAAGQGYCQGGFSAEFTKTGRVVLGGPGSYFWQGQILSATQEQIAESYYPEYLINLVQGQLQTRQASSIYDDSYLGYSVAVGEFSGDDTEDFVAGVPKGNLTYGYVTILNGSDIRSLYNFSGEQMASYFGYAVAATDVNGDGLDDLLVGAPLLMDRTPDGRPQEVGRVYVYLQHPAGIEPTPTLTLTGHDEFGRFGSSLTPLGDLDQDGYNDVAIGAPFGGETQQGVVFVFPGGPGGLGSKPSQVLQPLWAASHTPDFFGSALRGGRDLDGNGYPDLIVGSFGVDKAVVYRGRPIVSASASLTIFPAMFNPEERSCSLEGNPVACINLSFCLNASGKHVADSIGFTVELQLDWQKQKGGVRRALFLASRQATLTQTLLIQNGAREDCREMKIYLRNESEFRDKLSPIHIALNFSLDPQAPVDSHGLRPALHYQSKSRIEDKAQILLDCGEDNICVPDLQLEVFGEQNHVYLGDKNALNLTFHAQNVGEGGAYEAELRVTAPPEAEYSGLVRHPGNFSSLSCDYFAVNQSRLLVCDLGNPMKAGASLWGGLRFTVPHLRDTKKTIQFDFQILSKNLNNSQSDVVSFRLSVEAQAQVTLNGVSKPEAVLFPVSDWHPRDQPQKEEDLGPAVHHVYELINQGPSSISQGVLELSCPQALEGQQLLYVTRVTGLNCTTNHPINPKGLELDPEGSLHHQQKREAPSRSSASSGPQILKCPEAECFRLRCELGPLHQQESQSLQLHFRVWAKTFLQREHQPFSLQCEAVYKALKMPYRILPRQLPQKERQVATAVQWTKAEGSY
T1 sequence (P05556 21-728, chain 2 of 2): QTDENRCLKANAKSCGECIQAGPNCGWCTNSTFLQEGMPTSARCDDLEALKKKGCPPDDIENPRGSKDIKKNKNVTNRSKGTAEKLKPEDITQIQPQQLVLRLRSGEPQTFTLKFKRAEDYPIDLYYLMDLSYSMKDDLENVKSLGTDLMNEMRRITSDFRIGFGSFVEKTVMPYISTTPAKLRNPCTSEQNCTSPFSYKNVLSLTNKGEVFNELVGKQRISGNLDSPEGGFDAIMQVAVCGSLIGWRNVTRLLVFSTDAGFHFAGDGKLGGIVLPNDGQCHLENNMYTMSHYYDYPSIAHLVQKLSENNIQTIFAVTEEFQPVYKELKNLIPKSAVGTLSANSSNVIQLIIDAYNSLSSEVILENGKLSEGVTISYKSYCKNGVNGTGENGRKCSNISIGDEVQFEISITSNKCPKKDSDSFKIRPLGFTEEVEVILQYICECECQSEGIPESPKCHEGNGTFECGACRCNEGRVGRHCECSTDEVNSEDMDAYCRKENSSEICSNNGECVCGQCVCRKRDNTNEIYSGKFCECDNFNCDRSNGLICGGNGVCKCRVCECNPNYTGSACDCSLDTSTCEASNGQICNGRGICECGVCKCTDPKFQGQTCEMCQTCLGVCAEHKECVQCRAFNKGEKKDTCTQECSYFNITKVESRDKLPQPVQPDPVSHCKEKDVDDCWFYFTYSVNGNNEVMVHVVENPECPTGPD
Chain of integrin αvβ3 (P06756 31-992, chain 1 of 2): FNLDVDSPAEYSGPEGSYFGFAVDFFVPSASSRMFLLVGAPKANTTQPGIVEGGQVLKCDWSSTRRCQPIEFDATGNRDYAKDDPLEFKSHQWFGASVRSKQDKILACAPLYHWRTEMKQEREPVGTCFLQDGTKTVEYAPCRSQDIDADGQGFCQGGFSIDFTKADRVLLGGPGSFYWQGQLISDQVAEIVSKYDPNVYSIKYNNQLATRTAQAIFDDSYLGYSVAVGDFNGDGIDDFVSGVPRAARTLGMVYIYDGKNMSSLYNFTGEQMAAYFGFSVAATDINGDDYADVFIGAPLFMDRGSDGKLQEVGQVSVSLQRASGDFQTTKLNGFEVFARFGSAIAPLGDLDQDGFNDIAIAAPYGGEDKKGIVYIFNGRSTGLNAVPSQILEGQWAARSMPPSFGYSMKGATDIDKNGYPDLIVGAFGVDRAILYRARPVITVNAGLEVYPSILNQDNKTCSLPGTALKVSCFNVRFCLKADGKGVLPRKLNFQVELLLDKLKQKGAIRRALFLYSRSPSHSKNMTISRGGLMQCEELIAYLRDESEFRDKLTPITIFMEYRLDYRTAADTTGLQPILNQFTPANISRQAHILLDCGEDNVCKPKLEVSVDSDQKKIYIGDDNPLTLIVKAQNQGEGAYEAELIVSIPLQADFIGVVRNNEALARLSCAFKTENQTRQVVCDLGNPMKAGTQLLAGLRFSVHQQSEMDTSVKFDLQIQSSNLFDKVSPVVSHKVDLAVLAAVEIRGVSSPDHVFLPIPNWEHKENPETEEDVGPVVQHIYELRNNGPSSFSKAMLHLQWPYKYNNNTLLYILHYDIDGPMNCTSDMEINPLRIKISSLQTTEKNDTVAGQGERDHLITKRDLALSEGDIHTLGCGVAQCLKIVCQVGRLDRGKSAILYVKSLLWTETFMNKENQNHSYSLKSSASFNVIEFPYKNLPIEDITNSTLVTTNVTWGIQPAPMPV
Chain of integrin αvβ3 (P05106 27-718, chain 2 of 2): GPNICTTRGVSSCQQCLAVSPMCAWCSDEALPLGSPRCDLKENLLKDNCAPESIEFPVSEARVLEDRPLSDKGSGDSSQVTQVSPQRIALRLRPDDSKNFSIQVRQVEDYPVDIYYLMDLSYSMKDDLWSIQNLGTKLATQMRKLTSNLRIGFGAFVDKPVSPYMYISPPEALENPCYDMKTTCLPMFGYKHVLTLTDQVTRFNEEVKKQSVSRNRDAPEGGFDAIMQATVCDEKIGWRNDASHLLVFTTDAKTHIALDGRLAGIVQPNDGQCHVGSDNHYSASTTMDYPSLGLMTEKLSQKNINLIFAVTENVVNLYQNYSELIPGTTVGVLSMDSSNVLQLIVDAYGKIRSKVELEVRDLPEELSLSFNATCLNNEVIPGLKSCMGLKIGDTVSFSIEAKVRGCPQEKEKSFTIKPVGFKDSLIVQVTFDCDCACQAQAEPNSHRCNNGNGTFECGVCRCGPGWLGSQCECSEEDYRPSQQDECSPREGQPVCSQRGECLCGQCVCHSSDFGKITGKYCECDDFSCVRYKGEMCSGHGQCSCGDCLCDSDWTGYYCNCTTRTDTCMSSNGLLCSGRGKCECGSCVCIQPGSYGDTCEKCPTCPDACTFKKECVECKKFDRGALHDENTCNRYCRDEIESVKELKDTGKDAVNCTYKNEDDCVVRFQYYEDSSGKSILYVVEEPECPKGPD

Binder	Kd [1]	binding result [2]	binding result [3]
aptamer H02-2'F (XNA, 2'-fluoro pyrimidines) RNA: GGUUACCAGCCUUCACUGCGGACGGACAGAGAGUGCAACCUGCCGUGCCGCACCACGGUCGGUCACAC	72 ± 11 nM	no binding	
aptamer B03 (biotinylated, SPR) (structured_RNA, 2'-fluoro pyrimidines? (not stated for B03)) RNA: GGUUACCAGCCUUCACUGCGCCCAGUCACUGCACGAAUCAGUGAUGGCCGCACCACGGUCGGUCACAC			no binding
